Our source for the Km and kcat values is publication PMC12103068.

Substrate in the series: CC(=O)Oc1cccc2ccccc12
The series is described as follows: purified protein. In kind it is biochemical, Aspergillus oryzae. Particulars: 50 mM sodium phosphate pH 8.0, 30 °C (general assay conditions).

B1: AoAxeB (Aspergillus oryzae RIB40) (protein)
chain: AGSAGCGQPLPPSQNPGGSSYGVNFTLSAGTQRFYRIHIPSNYNVNTPTPLIFSFHGRGKTAESQEKLSQFSNEDWNPDAIAVYPQGLNKEWQGDPHSKDVDDIAFTMEMLDYFQEKFCIDSTRVYAAGKSNGGGFTNLLACDPTASTRIAAFAPVSGAYYQDVSEEACHPTTVPIKCSPGRPSIPILEFHGTADKTIPYGGGGRRGECLPSIPHFVREWSKRLGYGLHNTTKELYDGNVQEYQYGNGDNRGIVTHYRIGGLGHDWPSVRPNSDNPNGTYLDATPIIVKFFKQWVLPGSSEDNQSEAR
Take B1: the Km (as a rule, the concentration of substrate that gives half-maximal velocity) came to 240 ± 120 µM and the kcat (as a rule, the maximal rate divided by the concentration of active sites) stood at 0.17 ± 0.03 s⁻¹.
